Reference: article PMC3875342

Biological target: DP10.7 TCR (Vγ4Vδ1), soluble recombinant γδ TCR (human)
Test: SPR

soluble, recombinant human CD1d (heterodimer with β2-microglobulin) (from UniProt P15813 20-301; P61769 21-119) (complex)
KD without sulfatide (CD1d loaded with 24:1 βGalCer): > 100 µM
